The nature of this data set: soluble on expression in E. coli; label from the status in PepcDB or PDB records.
As to “MNVTTPEVAFREYQTNCLASYISADPDITPSNLILQGYSGTGKTYTLKKYFNANPNLHAVWLEPVELVSWKPLLQAIARTVQYKLKTLYPNIPTTDYDPLQVEEPFLLVKTLHNIFVQYESLQEKTCLFLILDGFDSLQDLDAALFNKYIKLNELLPKDSKINIKFIYTMLETSFLQRYSTHCIPTVMFPRYNVDEVSTILVMSRCGELMEDSCLRKRIIEEQITDCTDDQFQNVAANFIHLIVQAFHSYTGNDIFALNDLIDFKWPKYVSRITKENIFEPLALYKSAIKLFLSTDDNLSENGQGESAITTNRDDLENSQTYDLSIISKYLLIASYICSYLEPRYDASIFSRKTRIIQGRAAYGRRKKKEVNPRYLQPSLFAIERLLAIFQAIFPIQGKAESGSLSALREESLMKANIEVFQNLSELHTLKLIATTMNKNIDYLSPKVRWKVNVPWEIIKEISESVHFNISDYFSDIHE”, the “soluble on expression in E. coli” value is reported as “soluble”.

“MNVYRNQLIQLLPEITELKNLTTLDLSLNKLTQLPPEIGELNNLKTLYSSSNQLTQLPLEITKLKNLTELYLSSNLMIRLPLEITELKNLTTLNVYRNQLIQLPSKITELKNLKKLDLSRNQLAQLPPEIAELKNLTTLDLSRNQLAQLPPEIAELKNLTTLDLFENPLISLEHHHHHH”: the “soluble on expression in E. coli” value is on record as “not soluble”.

Consider “MNYELLTTENAPVKMWTKGVPVEADARQQLINTAKMPFIFKHIAVMPDVHLGKGSTIGSVIPTKGAIIPAAVGVDIGCGMNALRTALTAADLPENLAELRQAIETAVPHGRTTGRCKRDKGAWENPPFNVDAKWAELEAGYQWLTQKYPRFLNTNNYKHLGTLGTGNHFIEICLDESEQVWIMLHSGSRGIGNAIGTYFIDLAQKEMQDQLETLPSRDLAYFMEGTEYFDDYLRAVAWAQLFASLNRDAMMENVVTALQSITQKTVRQPQTLAMEEINCHHNYVQKEQLFGEEIYVTRKGAVSARAGQYGIIPGSMGAKSFIVRGLGNEESFCSCSHGAGRVMSRTKAKKLFSVEDQIRATAHVECRKDAEVIDEIPMAYKDIDAVMAAQSDLVEVIYTLRQVVCVKG”, for which the “soluble on expression in E. coli” value is “not soluble”.

For “MNYHQYYPIDVVNGPGTRCTLFVSGCVHQCRGCYNQSTQRLDSGVLFTQEAEDKIINDLNDTRIKRRGLSLSGGDPLHPANVPHILKIVKRVREECPGKDIWVWTGYTLAELDDAQREVVQYIDVLIDGKFEQDKKDLNLEWRGSSNQIIHRFTDILEHHHHHH”, the “soluble on expression in E. coli” value was “not soluble”.

With “MNYHQYYPVDIVNGPGTRCTLFVSGCVHECPGCYNKSTWRVNSGQPFTKAMEDQIINDLNDTRIKRQGISLSGGDPLHPQNVPDILKLVQRIRAECPGKDIWVWTGYKLDELNAAQMQVVDLINVLVDGKFVQDLKDPSLIWRGSSNQVVHHLRLEHHHHHH”, the “soluble on expression in E. coli” value is “soluble”.

With “MNYKSPVYNVTPIHYTKLQANNYNPNTVPATELKLLEKSIWEDGFTQPIVCYPLENSDKYEIIDGFHRYTIMQTSKRIREREKELLPVVILEKDTVNRIASTIRHNRARGFHNVELMSSIVGELADSGMSDSWIMKNIGMDANEILRLKQVSGLTHLFLDKEFSKASD”, the “soluble on expression in E. coli” value is on record as “not soluble”.

Turning to “MNYQDNSLKSLKLGQKTEYASQYDRTLLQPVPRALNRDGLGITQNQPFTIGADIWTAYEISWLNEKGLPQVAIADIYLDYQSQNLIESKSFKLYLNSFNQSKFADFNAVQQTMQRDLSECAQGDVKVRLNPMAVYDSQKIDHLQGDCIDEQDIEITSYEFNANWLKDCVSDEIVEEKLVSHLLKSNCLITNQPDWGTLHIHYVGKKINQEKLLRYVVSFRQHNEFHEQCVERIFCDLMHYAKPEKLTVYARYTRRGGLDINPFRSNFENLPENLRLARQ”, the “soluble on expression in E. coli” value is “soluble”.

As to “MNYRELMQKKNVRPYVLMARFGLEKENQRSTREGLLATTEHPTVFGNRSYHPYIQTDFSETQLELITPVANSGTEMLRFLDAIHDVARRSIPEDEMLWPLSMPPQLPTKDEEIKIAKLDQYDAVLYRRYLAKEYGKRKQMVSGIHFNFEYDQALIQQLYDEQSEVTDCKQFKTKVYMKVARNFLRYRWLITYLFGASPVSEDRYFRVYDDQPQEPVRSIRNSTYGYRNHDNVKVSYASLERYLEDIHRMVENGLLSEEKEFYAPVRLRGGKQMSDLPKTGIRYIELRNLDLNPFSRLGIVEDTVDFLHYFMLYLLWTDEKEEADEWVKTGDIFNEQVALGHPHETIKLIAEGDRIFSEMIDMLDALGIRKGKEVVGKYYQQLRNPQDTVSGKMWTIIQENSNSELGNIFGNQYQSMAFERPYQLAGFREMELSTQIFLFDAIQKGLEIEILDEQEQFLKLQHGEHIEYVKNANMTSKDNYVVPLIMENKTVTKKILSAAGFHVPGGEEFSSFIEAQEAHLRYANKAFVVKPKSTNYGLGITIFKEGASLEDFTEALRIAFKEDTAVLIEEFLPGTEYRFFVLDNDVKAIMLRVPANVTGDGKHTVEELVAAKNSDPLRGTNHRAPLELIQLNDLEKLMLKEQGLTIYSVPEKEQIVYLRENSNVSTGGDSIDMTDVIDDSYKQIAIEAVAALGAKICGIDLIIPDKDVKGTRDSLTYGIIEANFNPAMHMHVYPYAGQGRRLTMDVLKLLYPEVVQ”, the “soluble on expression in E. coli” value is recorded as “not soluble”.

“MPAFFVKAGAKKSGGGAAATRKRKNGGKSDAKSEEMAAKMSRRQKIMAATEIHSDEEDSLAGSAAASEAGSDVEYEDAHERNYREAKKLLDKIQSTTTTQEEVAEKLRDDAVARTGTQVKRVADVVELEDDLEISYKPHRLSPLCVAFSPDAKYVISCGKESSIVKFNVGTRKVVGIIKRTKKRAGVPEEPTNAHYGVIFTVAVSPDQKFIASGGFDQVVKAPKNMKILFQIWNFDSLEHIKDLSGHRGPIFSLTFQLKTNNLYSASQDRSVKMWDIDQLGLVDTMYGHQDGVQQIGVLSKQRVATVGGRDRSARLWKVEDESQLMFSGLQNCVSLDCVAMINEEHFATGSADGSIALWSFWKKRALHVRKQAHGTQNGSGRWIVALAVLPYSDLLASGSNEGELKLWKISENFRQLTPFFSYSIPGFINSINFAPNGKSIVVGAGKEHKDGRWWVDREARNQVVILPIKYTDGSDNNDVTIGDKTASGTVSGASAGGGGGIESGDESEEEEEELEEELEEEEEEIEE”: the “soluble on expression in E. coli” value was “not soluble”.

As to “MPAGLVISAPASGVGKTTLTLALARAWRNRGLSVQCFKSGPDYIDPAFHAAATGRASVNVDSWAMDRGGIAHLVGRGADADVVLAEGSMGLFDGVAARGVSGTGATADIAEMLGWPVLLVIDPSGQAQTAAAIAAGLRDYRPGVRLAGVVLNRVASPRHEDLVRRALDDAGIAVFGALPRHAEISLPKRHLGLVQAEEQAEIGKLIDEAARFVAEHVDLDAVLQSAAAWAPQPAANGLNVTPPGQRIALARDAAFSFVYPHMLEAWRAAGADISTFSPLADEAPDASADVCWLPGGYPELHAGKIAANARFCSGLRAFAETRPVHGECGGYMVLGTALTDADGVRHEMAGLLGLETSFAKRRMHLGYRLAELAAPMPGHSPGARLRGHEFHYSTIAAQPDMPLAVVHDATGAVIAETGSRRGNATGTFFHLIAEDRLEHHHHHH”, the “soluble on expression in E. coli” value is “soluble”.

Turning to “MPAVAFPVSSPRLLARAVQIAVLAMGALCVGCQSVDYSPPRQDRPPRLVSGLVYWGGDDKEGSRAADKISDLPVYNGEDVWQRVAQRCRLVDGQGMNERIARQRDWLLSNRGFITGASVRASPYLHFIVERLDERNMPLELALLPMIESSYNPMANSPAAAAGLWQFIPSTGRSFNLHQSATYDARRDVVASSKAAMDYLTRLHDQFNNDWLLALAAYNAGEGTVGRAIEANRRRGLPVDYWNLNLPKETQDYVPRLLALSMVVRNPNAYGVKLTPVANTPYFDVVELNHAVDLTQLAATAGVDEGQLLRLNSAFLRKKTFDGPGRLLIPKTQNRVLTTSIARITGESPVTASIPLVTPSAIVKRAAERLPAPAPVAERPVRVAERPPLPKPVQSAQLAENLPSPKTAQPLPVAQQPTAPEALQPAPAAESAPAVEIAQSAPVVEPDPLTNRIQLPRIRDDRSSPRKRDDDEYRSGPRELPTGPRVVVFASDPRQLEHHHHHH”, the “soluble on expression in E. coli” value is “not soluble”.

“MPCSEETPAISPSKRARPAEVGGMQLRFARLSEHATAPTRGSARAAGYDLYSAYDYTIPPMEKAVVKTDIQIALPSGCYGRVAPRSGLAAKHFIDVGAGVIDEDYRGNVGVVLFNFGKEKFEVKKGDRIAQLICERIFYPEIEEVQALDDTERGSGGFGSTGKN”: the “soluble on expression in E. coli” value is on record as “soluble”.

As for “MPDFAKQGPIVIGGVGGSGTRLIAEIVMDMGFYLGGMLNQSKDLLYFSLLFKRPTWFSKVVTSNEQEIFRGLKILENRLTTQKELTGKDIKFIEKAAQTYRNGDLLAQKIKKNMLFPDPINRQLYRGWGWKEPNAHLFLPYIHRYFPNGKYIHVIRNGLNMAFSKNQQQLFNWGPLFGVTIPNNPMKIPNASLTYWIKANERAVMYGTEQMKGRFLLIQFDQLCVNPTPQLQKLAEFLAVDDLAIDEWSEKIDPAAAASKYKEADLEHHHHHH”, the “soluble on expression in E. coli” value is “not soluble”.

Turning to “MPDHARMPRNLSSNKIAKTIAGEDLDEEEVLEMDAGQSAREEGRFVFECAWEVANKVGGIYTVLRSKAQISTEELGDQYCMFGPMKDGKWRLEVDPIEPENRTIRAAMKRFQADGFRCMYGRWLIEGYPKVILFDLGSGAVKMNEWKHELFEQCKIGIPHEDIESNDAVILGFMVALFLKHFRESVTSYTPLVVAHFHEWQAGVGLLMTRLWKLDIATVYTTHATLLGRHLCAGGADLYNNLDSFDLDAEAGKRKIYHQYCLERAACQTAHIFTTVSEITGLEAEHFLCRKPDVLTPNGLNVVKFAALHEFQNLHAQNKEKINQFIRGHFHGHLDFDLDKTLYFFTAGRYEFSNKGGDMFIESLARLNHYLKTTSDPRHMGVTVVAFLIYPAPANSFNVESLKGQAVTKQLKEAVDRIKEKVGQRIFDICLQGHLPEPEELMSPADNILLKRCIMSLHNSSLPPICTHNMIRADDPVLESLRRTSLFNKPEDRVKVVFHPEFLSSVSPLIGLDYEDFVRGCHLGVFPSYYEPWGYTPAECTVMGIPSVSTNLSGFGCFMQEHVEDHEQKGIYVIDRRHKAAEESVQELAQVMYDFCGQSRRQRIILRNSNEGLSALLDWQNLGVFYRDCRRLALERLHPDVDKIMRDNEGKVPSAATSRRPSIHSSDGEDDE”, the “soluble on expression in E. coli” value is on record as “not soluble”.

With “MPDLAGDLAAVLPPRPDTPGGEALPTDSGDVLRQGDILGRRVQSVRLGWDQLTSVQLWMCEQVLGIESAAEDEKPRRTRADKWALNYQAAKQFYEREGHLQVARKWVERIVIGGDGDGGDDKEEREHKLGARIGIQRSRAATPTPERMELLSAIGMRWSLEHHHHHH”, the “soluble on expression in E. coli” value is given as “not soluble”.

Regarding “MPEEESIDIKFRLYDGSDIGPFRYSAASTVDFLKQRVVSDWPKGKTVVPKGINEVKLISSGKILENNKTVGQCKTPFGDIAGGVIVMHVVVQPSLAKSKTEKKVDKAPKAVICTCTIL”, the “soluble on expression in E. coli” value is “soluble”.

As to “MPEIITPIITPFTKDNRIDKEKLKIHAENLIRKGIDKLFVNGTTGLGPSLSPEEKLENLKAVYDVTNKIIFQVGGLNLDDAIRLAKLSKDFDIVGIASYAPYYYPRMSEKHLVKYFKTLCEVSPHPVYLYNYPTATGKDIDAKVAKEIGCFTGVKDTIENIIHTLDYKRLNPNMLVYSGSDMLIATVASTGLDGNVAAGSNYLPEVTVTIKKLAMERKIDEALKLQFLHDEVIEASRIFGSLSSNYVLTKYFQGYDLGYPRPPIFPLDDEEERQLIKKVEGIRAKLVELKILKE”, the “soluble on expression in E. coli” value is “soluble”.

For “MPELDESASFAELLEAHAGGTRNVRPGDRISAAIVAITDDSVFVATGSKVDGVIDRRELEEADGSLPYAVGDRVDLYVTAVNGQEIRLSKGLSGQGGAAVLEEARDSGVPVEGRVTGTCKGGYNVDVLRKRAFCPGSQIDLHQLEDAESVVGQTFQFLVTRVEQHGRNIVVSRRALLERERDAALATFLEGVKEGDVLEGTVTRLAPFGAFVEIAPGVDGMVLEHHHHHH”, the “soluble on expression in E. coli” value is “not soluble”.

These data come from the DeepSol protein solubility set.
